Test results: paper PMC2926618
Positions count from the first letter of the chain named.

How the values were obtained:
GST-ZBTB38 zinc fingers = molecular target: T1, GST-ZBTB38 zinc fingers (Homo sapiens, UniProt Q8NAP3 418-612); assay: EMSA
T1 sequence: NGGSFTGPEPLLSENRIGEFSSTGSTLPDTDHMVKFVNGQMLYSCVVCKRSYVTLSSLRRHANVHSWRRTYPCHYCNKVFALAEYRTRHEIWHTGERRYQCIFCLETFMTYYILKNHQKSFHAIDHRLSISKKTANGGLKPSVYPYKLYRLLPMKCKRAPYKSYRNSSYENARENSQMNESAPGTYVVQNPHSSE

GST-Kaiso zinc fingers = molecular target: T2, GST-Kaiso zinc fingers (Homo sapiens, UniProt Q86T24 454-638); assay: EMSA
T2 sequence: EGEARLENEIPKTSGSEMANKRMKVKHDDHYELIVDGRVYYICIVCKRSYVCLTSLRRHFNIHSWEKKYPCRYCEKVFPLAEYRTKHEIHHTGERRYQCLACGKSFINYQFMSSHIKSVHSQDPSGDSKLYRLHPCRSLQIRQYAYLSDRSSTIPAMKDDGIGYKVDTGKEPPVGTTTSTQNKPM

GST-ZBTB4 zinc fingers [1] = molecular target: T3, GST-ZBTB4 zinc fingers (Homo sapiens, UniProt Q9P1Z0 268-460); assay: EMSA
T3 sequence: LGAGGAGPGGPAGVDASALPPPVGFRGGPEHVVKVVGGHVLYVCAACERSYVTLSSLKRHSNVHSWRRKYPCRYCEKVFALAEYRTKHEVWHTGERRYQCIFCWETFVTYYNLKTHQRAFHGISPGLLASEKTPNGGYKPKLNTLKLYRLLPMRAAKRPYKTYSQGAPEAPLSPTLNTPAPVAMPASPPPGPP

GST-ZBTB4 zinc fingers [2] = molecular target: T3, GST-ZBTB4 zinc fingers; assay: competition
GST-ZBTB4 R326A = molecular target: T4, GST-ZBTB4 R326A (Homo sapiens, UniProt Q9P1Z0 268-460, R326A); assay: EMSA
T4 sequence: T3 sequence with R59A

GST-Kaiso E535A = molecular target: T5, GST-Kaiso E535A (Homo sapiens, UniProt Q86T24 454-638, E535A); assay: EMSA
T5 sequence: T2 sequence with E82A

GST-ZBTB4 E350A = molecular target: T6, GST-ZBTB4 E350A (Homo sapiens, UniProt Q9P1Z0 268-460, E350A); assay: EMSA
T6 sequence: T3 sequence with E83A

GST-ZBTB4 T376A = molecular target: T7, GST-ZBTB4 T376A (Homo sapiens, UniProt Q9P1Z0 268-460, T376A); assay: EMSA
T7 sequence: T3 sequence with T109A

GST-ZBTB4 K354A = molecular target: T8, GST-ZBTB4 K354A (Homo sapiens, UniProt Q9P1Z0 268-460, K354A); assay: EMSA
T8 sequence: T3 sequence with K87A

GST-ZBTB4 zinc fingers [3] = molecular target: T3, GST-ZBTB4 zinc fingers; assay: EMSA; remark: listed apart in the source
GST-ZBTB4 zinc fingers [4] = molecular target: T3, GST-ZBTB4 zinc fingers; assay: competition; remark: listed apart in the source
GST-ZBTB4 Y351A = molecular target: T9, GST-ZBTB4 Y351A (Homo sapiens, UniProt Q9P1Z0 268-460, Y351A); assay: EMSA
T9 sequence: T3 sequence with Y84A

GST-ZBTB4 L348A = molecular target: T10, GST-ZBTB4 L348A (Homo sapiens, UniProt Q9P1Z0 268-460, L348A); assay: EMSA
T10 sequence: T3 sequence with L81A

GST-ZBTB4 S323A = molecular target: T11, GST-ZBTB4 S323A (Homo sapiens, UniProt Q9P1Z0 268-460, S323A); assay: EMSA
T11 sequence: T3 sequence with S56A

B1: S2 (CTGCCATC) (dsDNA)
DNA 1: ACCCACCTGCCATCTAGGT
DNA 2: ACCTAGATGGCAGGTGGGT
Question: Does B1 bind (GST-ZBTB38 zinc fingers)?
Answer: Result: no binding

Question: Does B1 bind (GST-Kaiso zinc fingers)?
Answer: Result: binds

Question: Does B1 bind (GST-ZBTB4 zinc fingers [1])?
Answer: Result: binds

B2: MS20 unmethylated (ACGCTTG) (dsDNA)
DNA 1: AAGGCCAACGCTTGTGGT
DNA 2: ACCACAAGCGTTGGCCTT
Question: Does B2 bind (GST-ZBTB4 zinc fingers [1])?
Answer: Result: no binding

B3: S15 (CCGCCATC) (dsDNA)
DNA 1: ACCCAACCGCCATCTGGGT
DNA 2: ACCCAGATGGCGGTTGGGT
Question: Which results are given for B3?
Answer: binding result (GST-ZBTB38 zinc fingers): no binding; binding result (GST-Kaiso zinc fingers): binds; binding result (GST-ZBTB4 zinc fingers [1]): binds

B4: meZ4BS hemimethylated, upper strand (dsDNA)
DNA 1: GTAGAAGTTCCCGCCATCACTATTG
DNA 2: CAATAGTGATGGCGGGAACTTCTAC
modifications: 5mC at strand 1 C12 only
Question: Does B4 bind (GST-ZBTB4 zinc fingers [2])?
Answer: Result: binds

B5: Z4BS (ZBS, CTGCCATC; = TG/AC) (dsDNA)
DNA 1: GTAGAAGTTCCTGCCATCACTATTG
DNA 2: CAATAGTGATGGCAGGAACTTCTAC
Question: Does B5 bind (GST-ZBTB4 R326A)?
Answer: Result: no binding

Question: Does B5 bind (GST-Kaiso E535A)?
Answer: Result: binds

Question: Does B5 bind (GST-ZBTB4 E350A)?
Answer: Result: binds

Question: Does B5 bind (GST-ZBTB4 T376A)?
Answer: Result: binds

Question: Does B5 bind (GST-ZBTB4 K354A)?
Answer: Result: binds

Question: Does B5 bind (GST-ZBTB4 zinc fingers [3])?
Answer: Result: binds

B6: MS20 methylated (ACGCTTG) (dsDNA)
DNA 1: AAGGCCAACGCTTGTGGT
DNA 2: ACCACAAGCGTTGGCCTT
modifications: 5mC at CpG, both strands (SssI)
Question: Does B6 bind (GST-ZBTB4 zinc fingers [1])?
Answer: Result: binds

B7: Non-selected (dsDNA)
DNA 1: ACCAAGCAACACACCCCGT
DNA 2: ACGGGGTGTGTTGCTTGGT
Question: Does B7 bind (GST-ZBTB4 zinc fingers [1])?
Answer: Result: no binding

B8: MS8 methylated (CCGCTAT) (dsDNA)
DNA 1: ACCCAAACCGCTATCCTT
DNA 2: AAGGATAGCGGTTTGGGT
modifications: 5mC at CpG, both strands (SssI)
Question: Does B8 bind (GST-ZBTB4 zinc fingers [1])?
Answer: Result: binds

B9: TG/GC mismatch (dsDNA)
DNA 1: GTAGAAGTTCCTGCCATCACTATTG
DNA 2: CAATAGTGATGGCGGGAACTTCTAC
Question: Does B9 bind (GST-ZBTB4 E350A)?
Answer: Result: binds

B10: meZ4BS (CMGCCAT) (dsDNA)
DNA 1: GTAGAAGTTCCCGCCATCACTATTG
DNA 2: CAATAGTGATGGCGGGAACTTCTAC
modifications: 5mC at strand 1 C12 and strand 2 C13
Question: Does B10 bind (GST-ZBTB4 zinc fingers [4])?
Answer: Result: binds

Question: Does B10 bind (GST-ZBTB4 Y351A)?
Answer: Result: binds

Question: Does B10 bind (GST-ZBTB4 R326A)?
Answer: Result: no binding

Question: Does B10 bind (GST-Kaiso E535A)?
Answer: Result: no binding

Question: Does B10 bind (GST-ZBTB4 T376A)?
Answer: Result: binds

Question: Does B10 bind (GST-ZBTB4 L348A)?
Answer: Result: binds

Question: Does B10 bind (GST-ZBTB38 zinc fingers)?
Answer: Result: binds

Question: Does B10 bind (GST-ZBTB4 K354A)?
Answer: Result: binds

Question: Does B10 bind (GST-ZBTB4 S323A)?
Answer: Result: binds
